Reference: patent US20240270846A1 (published 2024)
Changes are numbered by the printed parent chain. Names and notes keep the numbering of the source.

B1: CE115HA000/GLS3000 F55E one-arm antibody (antibody, human IgG1, kappa, L234A L235A, N297A, name in Kabat numbering)
heavy: QVQLVESGGGVVQPGRSLRLSCAASGFTFSNAWMHWVRQAPGKGLEWVAQIKAKSNNYATYYAESVKGRFTISRDDSKNSLYLQMNSLKTEDTAVYYCRYVHYGAYYGVDAWGQGTTVTVSSASTKGPSVFPLAPSSKSTSGGTAALGCLVKDYFPEPVTVSWNSGALTSGVHTFPAVLQSSGLYSLSSVVTVPSSSLGTQTYICNVNHKPSNTKVDKKVEPKSCDKTHTCPPCPAPEAAGGPSVFLFPPKPKDTLMISRTPEVTCVVVDVSHEDPEVKFNWYVDGVEVHNAKTKPREEQYASTYRVVSVLTVLHQDWLNGKEYKCKVSNKALPAPIEKTISKAKGQPREPQVYTLPPSRCELTKNQVSLSCAVKGFYPSDIAVEWESNGQPENNYKTTPPVLDSDGSFFLVSKLTVDKSRWQQGNVFSCSVMHEALHNHYTQKSLSLSPDYKDDDDK
chain: EPKSSDKTHTCPPCPAPELLGGPSVFLFPPKPKDTLMISRTPEVTCVVVDVSHEDPEVKFNWYVDGVEVHNAKTKPREEQYNSTYRVVSVLTVLHQDWLNGKEYKCKVSNKALPAPIEKTISKAKGQPREPQVCTLPPSRDELTKNQVSLWCLVKGFYPSDIAVEWESNGQPENNYKTTPPVLDSDGSFFLYSKLTVDKSRWQQGNVFSCSVMHEALHNRYTQKSLSLSP
light: DIVMTQSPLSLPVTPGEPASISCRSSQSLVHSNRNTYLHWYQQKPGQAPRLLIYKVSNRESGVPDRFSGSGSGTDFTLKISRVEAEDVGVYYCGQGTQVPYTFGQGTKLEIKRTVAAPSVFIFPPSDEQLKSGTASVVCLLNNFYPREAKVQWKVDNALQSGNSQESVTEQDSKDSTYSLSSTLTLSKADYEKHKVYACEVTHQGLSSPVTKSFNRGEC
notes: one-arm IgG1
B2: CE115HA000/GLS3000 F55V one-arm antibody (antibody, human IgG1, kappa, L234A L235A, N297A, name in Kabat numbering)
heavy: B1 heavy
chain: B1 chain
light: B1 light with E60V
notes: one-arm IgG1
B3: CE115HA000/GLS3000 G89H one-arm antibody (antibody, human IgG1, kappa, L234A L235A, N297A, name in Kabat numbering)
heavy: B1 heavy
chain: B1 chain
light: B1 light with E60F, G94H
notes: one-arm IgG1
B4: CE115HA000/GLS3000 F55H one-arm antibody (antibody, human IgG1, kappa, L234A L235A, N297A, name in Kabat numbering)
heavy: B1 heavy
chain: B1 chain
light: B1 light with E60H
notes: one-arm IgG1
B5: CE115HA000/GLS3000 F55P one-arm antibody (antibody, human IgG1, kappa, L234A L235A, N297A, name in Kabat numbering)
heavy: B1 heavy
chain: B1 chain
light: B1 light with E60P
notes: one-arm IgG1
B6: CE115HA000/GLS3000 F55I one-arm antibody (antibody, human IgG1, kappa, L234A L235A, N297A, name in Kabat numbering)
heavy: B1 heavy
chain: B1 chain
light: B1 light with E60I
notes: one-arm IgG1
B7: CE115HA000/GLS3000 G89F one-arm antibody (antibody, human IgG1, kappa, L234A L235A, N297A, name in Kabat numbering)
heavy: B1 heavy
chain: B1 chain
light: B1 light with E60F, G94F
notes: one-arm IgG1
B8: CE115HA000/GLS3000 F55N one-arm antibody (antibody, human IgG1, kappa, L234A L235A, N297A, name in Kabat numbering)
heavy: B1 heavy
chain: B1 chain
light: B1 light with E60N
notes: one-arm IgG1
B9: CE115HA000/GLS3000 G89K one-arm antibody (antibody, human IgG1, kappa, L234A L235A, N297A, name in Kabat numbering)
heavy: B1 heavy
chain: B1 chain
light: B1 light with E60F, G94K
notes: one-arm IgG1
B10: CE115HA000/GLS3000 F55S one-arm antibody (antibody, human IgG1, kappa, L234A L235A, N297A, name in Kabat numbering)
heavy: B1 heavy
chain: B1 chain
light: B1 light with E60S
notes: one-arm IgG1
B11: CE115HA000/GLS3000 G89I one-arm antibody (antibody, human IgG1, kappa, L234A L235A, N297A, name in Kabat numbering)
heavy: B1 heavy
chain: B1 chain
light: B1 light with E60F, G94I
notes: one-arm IgG1
B12: CE115HA000/GLS3000 F55Q one-arm antibody (antibody, human IgG1, kappa, L234A L235A, N297A, name in Kabat numbering)
heavy: B1 heavy
chain: B1 chain
light: B1 light with E60Q
notes: one-arm IgG1
B13: CE115HA000/GLS3000 G89D one-arm antibody (antibody, human IgG1, kappa, L234A L235A, N297A, name in Kabat numbering)
heavy: B1 heavy
chain: B1 chain
light: B1 light with E60F, G94D
notes: one-arm IgG1
B14: CE115HA000/GLS3000 G89E one-arm antibody (antibody, human IgG1, kappa, L234A L235A, N297A, name in Kabat numbering)
heavy: B1 heavy
chain: B1 chain
light: B1 light with E60F, G94E
notes: one-arm IgG1
B15: CE115HA000/GLS3000 F55K one-arm antibody (antibody, human IgG1, kappa, L234A L235A, N297A, name in Kabat numbering)
heavy: B1 heavy
chain: B1 chain
light: B1 light with E60K
notes: one-arm IgG1
B16: CE115HA000/GLS3000 F55L one-arm antibody (antibody, human IgG1, kappa, L234A L235A, N297A, name in Kabat numbering)
heavy: B1 heavy
chain: B1 chain
light: B1 light with E60L
notes: one-arm IgG1
B17: CE115HA000/GLS3000 F55M one-arm antibody (antibody, human IgG1, kappa, L234A L235A, N297A, name in Kabat numbering)
heavy: B1 heavy
chain: B1 chain
light: B1 light with E60M
notes: one-arm IgG1
B18: CE115HA000/GLS3000 G89A one-arm antibody (antibody, human IgG1, kappa, L234A L235A, N297A, name in Kabat numbering)
heavy: B1 heavy
chain: B1 chain
light: B1 light with E60F, G94A
notes: one-arm IgG1
B19: CE115HA000/GLS3000 F55Y one-arm antibody (antibody, human IgG1, kappa, L234A L235A, N297A, name in Kabat numbering)
heavy: B1 heavy
chain: B1 chain
light: B1 light with E60Y
notes: one-arm IgG1
B20: CE115HA000/GLS3000 F55T one-arm antibody (antibody, human IgG1, kappa, L234A L235A, N297A, name in Kabat numbering)
heavy: B1 heavy
chain: B1 chain
light: B1 light with E60T
notes: one-arm IgG1
B21: CE115HA000/GLS3000 F55G one-arm antibody (antibody, human IgG1, kappa, L234A L235A, N297A, name in Kabat numbering)
heavy: B1 heavy
chain: B1 chain
light: B1 light with E60G
notes: one-arm IgG1
B22: CE115HA000/GLS3000 F55W one-arm antibody (antibody, human IgG1, kappa, L234A L235A, N297A, name in Kabat numbering)
heavy: B1 heavy
chain: B1 chain
light: B1 light with E60W
notes: one-arm IgG1
B23: CE115HA000/GLS3000 F55R one-arm antibody (antibody, human IgG1, kappa, L234A L235A, N297A, name in Kabat numbering)
heavy: B1 heavy
chain: B1 chain
light: B1 light with E60R
notes: one-arm IgG1

biological target: T1, CD3 epsilon homodimer protein (UniProt P07766 23-126); experiment: SPR (Biacore T200), CD3e homodimer on CM4 chip, antibody as analyte; KD ratio vs unaltered GLS3000;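 also: CD3 epsilon homodimer amine-coupled to the sensor surface, antibodies injected as analyte at 25 °C with HBS-EP+ running buffer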
T1 construct: also called CD3 (CD3 epsilon)
T1 sequence (P07766 23-126): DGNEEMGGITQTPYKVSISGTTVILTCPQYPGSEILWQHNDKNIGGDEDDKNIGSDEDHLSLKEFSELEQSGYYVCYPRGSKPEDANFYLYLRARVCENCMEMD
Description: An appropriate amount of CD3 epsilon homodimer protein was immobilized onto Sensor chip CM4 (GE Healthcare Japan Corp.) by the amine coupling method. Then, the antibody having an appropriate concentration was injected thereto as an analyte and allowed to interact with the CD3 epsilon homodimer protein on the sensor chip. Then, the sensor chip was regenerated by the injection of 10 mmol/L glycine-HCl (pH 1.5). The assay was conducted at 25 degrees C., and HBS-EP+(GE Healthcare Japan Corp.) was used as a running buffer. […] Each parameter was calculated using Biacore T200 Evaluation Software (GE Healthcare Japan Corp.).
Specifically, when the amount of the GLS3000-containing antibody bound was defined as X and the amount of the L chain one-amino acid altered form bound was defined as Y, a value of Z (ratio of amounts bound)=Y/X was used.

Binder | KD ratio to GLS3000 [ratio]
B1 | 0.92
B2 | 1.12
B3 | 1.44
B4 | 1.02
B5 | 1.15
B6 | 1.28
B7 | 3.34
B8 | 0.91
B9 | 1.8
B10 | 1.15
B11 | 1.11
B12 | 1.09
B13 | 1.96
B14 | 34.6
B15 | 1.22
B16 | 1.43
B17 | 1.29
B18 | 1.1
B19 | 1.13
B20 | 2.42
B21 | 1.15
B22 | 1.72
B23 | 1.27
